Assay results published in publication PMC12441120, “Gephyrin filaments represent the molecular basis of inhibitory postsynaptic densities” (Nature Communications, 2025).
Values belong to the molecule of their own block, whether it stands above or below them.

How the values were obtained:
[1] = target: full-length wild-type gephyrin (Geph^WT) (human) (UniProt Q9NQX3); assay: SEC; analytical SEC (Superdex 6 increase or Superose 6 increase 10/300 GL) in grid buffer (25 mM Tris pH 7.5, 250 mM NaCl, 25 mM Arg/Glu, 5 mM β-mercaptoethanol, 1.5% sucrose); Geph^WT with a 3-fold excess of GlyR-loop; no filaments seen in SEC
[2] = target: the molecule itself; assay: cell-based or functional assay

stoichiometry N [1]: 3
Molecule: full-length wild-type gephyrin (Geph^WT) (from UniProt Q9NQX3 1-736) (natural protein)

B1: isolated gephyrin E-domain, wild type (GephE^WT, residues 327–736) (domain or fragment, human, UniProt Q9NQX3 327-736, looked up)
chain: DKAFITVLEMTPVLGTEIINYRDGMGRVLAQDVYAKDNLPPFPASVKDGYAVRAADGPGDRFIIGESQAGEQPTQTVMPGQVMRVTTGAPIPCGADAVVQVEDTELIRESDDGTEELEVRILVQARPGQDIRPIGHDIKRGECVLAKGTHMGPSEIGLLATVGVTEVEVNKFPVVAVMSTGNELLNPEDDLLPGKIRDSNRSTLLATIQEHGYPTINLGIVGDNPDDLLNALNEGISRADVIITSGGVSMGEKDYLKQVLDIDLHAQIHFGRVFMKPGLPTTFATLDIDGVRKIIFALPGNPVSAVVTCNLFVVPALRKMQGILDPRPTIIKARLSCDVKLDPRPEYHRCILTWHHQEPLPWAQSTGNQMSSRLMSMRSANGLLMLPPKTEQYVELHKGEVVDVMVIGRL
sedimentation assay of in vitro phase separation (LLPS) with GlyR-LD: GephE in the pellet fraction against the sample without GlyR-LD [2]: ~10 fold
